Here are results for 4 molecules from patent US20060008846A1 (RESEARCH DEVELOPMENT FOUNDATION, published 2006).

In experiment [1] the target is ActRII (type II activin receptor) transfected into 293T cells (UniProt P27038). As to the kind of experiment: cell-based or functional assay.
The target of experiment [2] is T1, ALK4 (activin type I receptor) (UniProt P36896 24-505, limits assumed).
T1 sequence (looked up): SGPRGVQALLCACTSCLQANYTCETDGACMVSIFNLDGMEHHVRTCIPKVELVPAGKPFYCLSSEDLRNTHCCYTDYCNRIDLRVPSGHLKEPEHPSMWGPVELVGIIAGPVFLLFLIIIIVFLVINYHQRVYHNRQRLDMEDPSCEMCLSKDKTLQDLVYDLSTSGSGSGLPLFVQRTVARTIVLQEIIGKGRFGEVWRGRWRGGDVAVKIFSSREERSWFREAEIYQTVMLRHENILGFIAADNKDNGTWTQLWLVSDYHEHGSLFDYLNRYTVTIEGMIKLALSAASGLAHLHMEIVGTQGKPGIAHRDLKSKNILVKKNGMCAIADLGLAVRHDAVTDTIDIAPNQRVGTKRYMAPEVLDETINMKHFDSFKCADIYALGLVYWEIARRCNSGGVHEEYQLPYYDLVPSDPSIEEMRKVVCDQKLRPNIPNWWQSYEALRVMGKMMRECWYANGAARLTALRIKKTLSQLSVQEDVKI
In words: cell-based or functional assay.

The target in experiment [3] is activin receptors of non-transfected 293T cells. As to the kind of experiment: competition binding, 125I-activin on non-transfected 293T cells.
The target in experiment [4] is T1, ALK4 (activin type I receptor). In words: cell-based or functional assay. This is another data set of the same source.
Experiment [5] deals with T2, mouse ActRII transfected into 293T cells (mouse, UniProt P27038 20-513).
T2 construct: whole, on cells
T2 sequence (P27038 20-513): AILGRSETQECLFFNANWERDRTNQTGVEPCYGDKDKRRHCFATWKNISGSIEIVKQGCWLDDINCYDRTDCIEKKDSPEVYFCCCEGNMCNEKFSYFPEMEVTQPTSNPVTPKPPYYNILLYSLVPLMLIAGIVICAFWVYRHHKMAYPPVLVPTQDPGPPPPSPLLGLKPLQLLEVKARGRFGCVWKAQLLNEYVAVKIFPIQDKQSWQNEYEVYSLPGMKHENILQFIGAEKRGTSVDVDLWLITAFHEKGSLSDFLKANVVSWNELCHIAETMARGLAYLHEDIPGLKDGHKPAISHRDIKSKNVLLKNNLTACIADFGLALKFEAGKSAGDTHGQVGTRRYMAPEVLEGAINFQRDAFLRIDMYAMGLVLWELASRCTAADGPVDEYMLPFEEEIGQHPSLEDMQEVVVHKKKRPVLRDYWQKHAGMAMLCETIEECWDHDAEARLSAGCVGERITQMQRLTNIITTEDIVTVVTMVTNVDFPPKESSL
In words: ActRII binding, 293T cells transfected with mouse ActRII. Here is the method:
After the incubation cells were washed three times with HDB buffer and lysed with 1% SDS solution. Radioactivity in the lysate was determined using a gamma counter.
Therefore, the inventors contemplate engineering a series of activin-A chimeras, such as activin-A/C chimeras, preferably having a peptide tag such a FLAG tag, in each of […] in the wrist loop and helix (such as A/C 46-53, 54-63, 64-69, 70-78) are replaced. Additionally, a chimera was generated in which the entire wrist region (A/C 46-78) was changed from activin-A to activin-C or some other analogous TGF-β member. In one example, the chimeras were assessed for ActRII binding, activin bioactivity as well as antagonistic properties. […] Maximum activity of A/C 64-69 and 70-78, however, was reduced down to about 20-50% and 60-90%, respectively, when compared to wt activin. […] Additionally, A/C 46-78 decreased the basal and activin induced FSH release from cultured rat anterior pituitary cells in a concentration dependent manner. […] The activin antagonist A/C 46-78 may be useful for the study and modulation of activin dependent processes.

In experiment [6] the target is T3, ActRII and ALK4 co-transfected into 293T cells (UniProt P27038 20-513; P36896 24-505).
T3 construct: whole, on cells; Both receptors on the same cells; also called cells transfected with ActRII and ALK4; receptor complex
T3 sequence (P27038 20-513, one chain of several): as the sequence (P27038 20-513) above
In words: competition binding, 125I-activin on 293T cells transfected with ActRII and ALK4.

In experiment [7] the target is type II activin receptors in 293T cells. As to the kind of experiment: cell-based or functional assay.
The target of experiment [8] is T1, ALK4 (activin type I receptor). In words: DSS crosslinking of 125I-M108A to 293T cells transfected with ActRII-myc and ALK4, immunoprecipitation, SDS-PAGE, autoradiography. The procedure: Cells were incubated with labeled activin or labeled M108A as indicated, subjected to covalent crosslinking with dissucinylsuberate (DSS), solubilized in lysis buffer, immunoprecipitated using an antibody against myc or ALK4 and then immunoprecipitated proteins were resolved by SDS-PAGE and visualized by autoradiography.
Approximately 24 h later, cells were transfected with 2 μg DNA per well with the indicated constructs (the ratio of ActRII:ALK4 was 2:1 and total DNA was kept constant using pcDNA3.0). […] Cells were washed in HDB, resuspended at 0.5 mM disuccinylsuberate (DSS) in HDB and incubated 30 min on ice. Crosslinking reactions were quenched with TBS (50 mM Tris-HCl pH 7.5, 150 mM NaCl) and cells were solubilized in lysis buffer (TBS containing 1% NP-40, 0.5% deoxycholate and 2 mM EDTA) and subjected to immunopreciptation using anti-myc or anti-ALK4 antibodies as indicated. Immune complexes were analyzed by SDS-PAGE and autoradiography.

Chain of ActRII (type II activin receptor) transfected into 293T cells (P27038 20-513): as above

B1: activin-A K102E (ligand, human, UniProt P08476 311-426, looked up)
chain: GLECDGKVNICCKKQFFVSFKDIGWNDWIIAPSGYHANYCEGECPSHIAGTSGSSLSFHSTVINHYRMRGHSPFANLKSCCVPTKLRPMSMLYYDDGQNIIEKDIQNMIVEECGCS
In experiment [1], B1 came in with a % Activin Activity (A3-luciferase assay in 293T cells) (% of wild type activin-A) of 18.

B2: wild type activin-A (ligand, human, UniProt P08476 311-426, looked up)
chain: GLECDGKVNICCKKQFFVSFKDIGWNDWIIAPSGYHANYCEGECPSHIAGTSGSSLSFHSTVINHYRMRGHSPFANLKSCCVPTKLRPMSMLYYDDGQNIIKKDIQNMIVEECGCS
notes: mature; As tracer it was radioiodinated by the chloramine T method; also called WT activin-A; wt activin-A
As usually defined, the EC50 is the concentration needed to bring the measured effect to its halfway point. Lower therefore signals higher potency in that assay. Take B2: in experiment [2], the “EC50 of activity in the A3 Lux reporter assay in 293T cells” value came to 0.2 nM. For the same molecule, the apparent affinity in experiment [3] lay in the range of 60 to 80 pM. For the same molecule, the fold higher affinity than in cells transfected with ActRII alone in experiment [3] and in experiment [6] was 2 fold throughout. In experiment [4], the “% Activin Activity (A3-luciferase assay in 293T cells)” value is 100 % of wild type activin-A. In addition, the EC50 in experiment [5] amounted to 0.15 nM.

B3: activin-A (M108A), P08476 311-426 (ligand, human, UniProt P08476 311-426, looked up)
chain: GLECDGKVNICCKKQFFVSFKDIGWNDWIIAPSGYHANYCEGECPSHIAGTSGSSLSFHSTVINHYRMRGHSPFANLKSCCVPTKLRPMSMLYYDDGQNIIKKDIQNAIVEECGCS
In experiment [7], B3 came in with an activin-A (100 pM) induced luciferase response in 293T cells with increasing amounts of M108A (fold induction) of 23 and a myostatin (500 pM) induced luciferase response in 293T cells with increasing doses of M108A (fold induction) of 26.

B4: activin-A (M108A) (ligand, human, UniProt P08476 311-426, looked up)
chain: GLECDGKVNICCKKQFFVSFKDIGWNDWIIAPSGYHANYCEGECPSHIAGTSGSSLSFHSTVINHYRMRGHSPFANLKSCCVPTKLRPMSMLYYDDGQNIIKKDIQNAIVEECGCS
notes: mature; Radioiodinated by the chloramine T method for the crosslinking study; also called M108A activin-A; M108A mutant
On to B4, for which the affinity in experiment [3] came out at 370 pM. Further, the “% Activin Activity (A3-luciferase assay in 293T cells)” value in experiment [4] is 8 % of wild type activin-A. For the same molecule, the binding result in experiment [8] is recorded as “no binding”.
